Source: CN114106166A (VIRUS DISEASE PREVENTION AND CONTROL PLACE OF CHINESE …, dated 2022)

Legend:
新型冠状病毒Omicron变体RBD蛋白 = target: T1, 新型冠状病毒Omicron变体RBD蛋白 (SARS-CoV-2 Omicron variant, UniProt P0DTC2 319-541); test: SPR, BIAcore 8000, RBD protein coupled to the chip, 1:1 binding fit
T1 construct: domain: RBD

新型冠状病毒Delta变体RBD蛋白 = target: T2, 新型冠状病毒Delta变体RBD蛋白 (SARS-CoV-2 Delta variant, UniProt P0DTC2 319-541); test: as above
T2 construct: domain: RBD; also called 新冠Delta变体RBD蛋白

B1: 人源抗新冠病毒中和性抗体D2 (全抗体IgG) (antibody, V domains shown)
VH: EVQLVESGGGLVQPGRSLTLSCGASGFTFEDYAMHWVRQAPGKGLEWVSGIDWNSGVIGYADSVKGRFIISRDNAKNSLYLHMRSLTAEDTALYYCAKDVYSESGSGSYYDYWGQGTLVTVSS
VL: QSVLTQPPSVSAAPGQKVAISCSGSTSNIGDNFVSWYQQFPGTAPKLLLYDDARRPSGIPDRFSGSKSGTSATLGITGLQTGDEAVYFCSTWDNSLNVVLFGGGTKLTVL
notes: also called D2号抗体; 纯化D2抗体
Q: B1 was tested. Which Kd (新型冠状病毒Omicron变体RBD蛋白) did it give?
A: 0.011 nM

Q: What about the Kd (新型冠状病毒Delta变体RBD蛋白) of the same binder?
A: 0.0621 nM
